According to IntAct's records for PubMed 24165795:

B1: Phosphatidylinositol 4,5-bisphosphate 3-kinase catalytic subunit delta isoform (Homo sapiens), O00329 (parent)
chain: MPPGVDCPMEFWTKEENQSVVVDFLLPTGVYLNFPVSRNANLSTIKQLLWHRAQYEPLFHMLSGPEAYVFTCINQTAEQQELEDEQRRLCDVQPFLPVLRLVAREGDRVKKLINSQISLLIGKGLHEFDSLCDPEVNDFRAKMCQFCEEAAARRQQLGWEAWLQYSFPLQLEPSAQTWGPGTLRLPNRALLVNVKFEGSEESFTFQVSTKDVPLALMACALRKKATVFRQPLVEQPEDYTLQVNGRHEYLYGSYPLCQFQYICSCLHSGLTPHLTMVHSSSILAMRDEQSNPAPQVQKPRAKPPPIPAKKPSSVSLWSLEQPFRIELIQGSKVNADERMKLVVQAGLFHGNEMLCKTVSSSEVSVCSEPVWKQRLEFDINICDLPRMARLCFALYAVIEKAKKARSTKKKSKKADCPIAWANLMLFDYKDQLKTGERCLYMWPSVPDEKGELLNPTGTVRSNPNTDSAAALLICLPEVAPHPVYYPALEKILELGRHSECVHVTEEEQLQLREILERRGSGELYEHEKDLVWKLRHEVQEHFPEALARLLLVTKWNKHEDVAQMLYLLCSWPELPVLSALELLDFSFPDCHVGSFAIKSLRKLTDDELFQYLLQLVQVLKYESYLDCELTKFLLDRALANRKIGHFLFWHLRSEMHVPSVALRFGLILEAYCRGSTHHMKVLMKQGEALSKLKALNDFVKLSSQKTPKPQTKELMHLCMRQEAYLEALSHLQSPLDPSTLLAEVCVEQCTFMDSKMKPLWIMYSNEEAGSGGSVGIIFKNGDDLRQDMLTLQMIQLMDVLWKQEGLDLRMTPYGCLPTGDRTGLIEVVLRSDTIANIQLNKSNMAATAAFNKDALLNWLKSKNPGEALDRAIEEFTLSCAGYCVATYVLGIGDRHSDNIMIRESGQLFHIDFGHFLGNFKTKFGINRERVPFILTYDFVHVIQQGKTNNSEKFERFRGYCERAYTILRRHGLLFLHLFALMRAAGLPELSCSKDIQYLKDSLALGKTEEEALKHFRVKFNEALRESWKTKVNWLAHNVSKDNRQ

Variants of: B1
Details: with p85a_human PIK3R1, P27986
p85a_human PIK3R1, P27986, sequence (P27986 whole entry): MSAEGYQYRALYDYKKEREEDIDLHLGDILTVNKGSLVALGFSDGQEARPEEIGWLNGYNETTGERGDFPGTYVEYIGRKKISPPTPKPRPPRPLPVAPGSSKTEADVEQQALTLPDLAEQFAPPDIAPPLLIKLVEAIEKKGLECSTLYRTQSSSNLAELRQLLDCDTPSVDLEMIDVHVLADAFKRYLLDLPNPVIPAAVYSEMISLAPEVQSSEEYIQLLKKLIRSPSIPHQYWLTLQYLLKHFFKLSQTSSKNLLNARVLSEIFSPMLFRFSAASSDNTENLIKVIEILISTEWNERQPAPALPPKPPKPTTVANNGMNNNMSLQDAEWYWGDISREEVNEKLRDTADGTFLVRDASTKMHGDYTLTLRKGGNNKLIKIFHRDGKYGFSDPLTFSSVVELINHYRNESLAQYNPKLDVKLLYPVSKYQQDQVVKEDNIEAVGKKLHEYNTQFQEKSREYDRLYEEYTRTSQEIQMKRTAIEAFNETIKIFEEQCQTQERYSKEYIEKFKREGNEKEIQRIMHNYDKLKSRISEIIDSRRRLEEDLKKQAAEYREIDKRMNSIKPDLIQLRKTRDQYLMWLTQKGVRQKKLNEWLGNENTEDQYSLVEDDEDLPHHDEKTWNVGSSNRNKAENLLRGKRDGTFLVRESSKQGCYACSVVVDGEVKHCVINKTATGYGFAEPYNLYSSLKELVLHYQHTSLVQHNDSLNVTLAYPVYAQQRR

| Variant | effect of a mutation on the interaction |
| --- | --- |
| E525K | with no effect |
| E1021K | with no effect |
